Measurements taken from patent publication US20130196415.

Test system: fibrin

Substance: trypsin (EC3.4.21.4, manufactured by Wako Pure Chemical Industries, Ltd.)
- digestion circle on fibrin-containing solid medium (fibrinolytic activity assay, protease at FLV 111, overnight at 37° C.): a digestion circle was observed for trypsin
